This note sets out measurements from the DeepSol protein solubility set.

The nature of this data set: soluble on expression in E. coli; label from the status in PepcDB or PDB records.
“MSKMTRHDAQLYELKKKIEELKKIRGRGTELISLYIPAGYDLSKVMQQLREEYSTAQNIKSKTTRKNVLGALERAMQHLKLYKQTPENGLALFVGNVSEIEGNTDIRLWAIIPPEPLNVRLYRCDQTFVTEPLEEMLRVKDAYGLITVEKNEATIGLLRGKRIELLDELTSNVPGKTRAGGQSARRYERIREQETHEFMKRIGEHANRAFLPLLEKGELKGIIIGGPGPTKEEFVEGEYLHHELKKKILGVVDISYHGEYGLRELVEKASDILRDHEVIREKKLVNEFLKHVVKDTGLATYGEREVRRALEIGAVDVLLISEGYNKVRVRVKCNHCGWEELKTMSEEEYEVYRKKITKCPKCGSQNLTIEKWDVAEELIKMAEEAGSDVEIISLDTEEGQQFYRAFGGLGAILRFKI”: the “soluble on expression in E. coli” value was “soluble”.

As for “MSLSIPADIASLISDKYKSAFDNGNLKFIQTETTKTKDPKTSMPYLISHMPSLIEKPERGQTPEGEDPLGKPEEELTVIPEFGGADNKAYKLLLNKFPVIPGHTLLVTNEYQHQTDALTPTDLLTAYKLLCALDNEESDKRHMVFYNSGPASGSSLDHKHLQILQMPEKFVTFQDRLCNGKEHFLPTFNTEPLQDAKVSFAHFVLPMPESEETVDEDLLAMCYISILQRALTFFQDWLNENPELKKSYNLMLTKEWICVVPRSKAFSDEMKIGFNSTGYCGMILTKNDEVFSKITEKPELINDILLECGFPNTSGQKPNEYNYEGHHHHHH”, the “soluble on expression in E. coli” value is “soluble”.

In the case of “SEMLASLKEHPNELLDLLNSIITDFELAVDDLIENFMQSDFDALKLTMHTTKGMALNLGLKILASQALELETQLKMNQVPAIEQLQMLINRLQVNIHQGHRLRDELVKAQQNSEQVF”, the “soluble on expression in E. coli” value is “not soluble”.

As for “MGPVPEFSVIIPARNEAAYLPGTLRALERQTLAPAEVIVVDNASRDQTAQIARSWGAQVLSCPEGGVARARQLGLDTARSSWVATTDADSLPAPGWLAAYAQAALLAGGYPEVEAYEDVILGQNLARLGEIGYVPRALVETSARRLDRGVGPFLIQHLRNLTGHTRGLEHHHHHH”, the “soluble on expression in E. coli” value was “not soluble”.

As for “SLLSPAAERSQGSLLSVIMEILKDQSHRELFGLELGSGTGQHVVHFAQEMPFVTWLPSDTKEESRNSIRAYIEATKAKTVLEPVHLDASEPWDKWAGLPQNSCDIILAINLLQYTPFSTAEGVFKGSGQILKQNGLLMTYGPYAINGTITPICNEQLDETLRQMNPEWGLPDIDVLRQLAFSNGMRMERMIEMPESNKCLVFRKL”, the “soluble on expression in E. coli” value is listed as “soluble”.

On to “MGSDKIHHHHHHMSLQFDHETLGQRVLFGSGEAAQNLAAEISRLDAKNVMVVAGDFELPMARQVAADIDVKVWHSNVVMHVPIETAEEARSVAKENDIDVVVCVGGGSTTGLAKAIAMTTALPIIAVPTTYAGSEATNVWGLTEAARKTTGVDNKVLPVTVIYDSALTMSLPVEMSVASGLNGLAHCIDSLWGPKADPINAAMAAEGIRALSAGLPKIVADAQDVDGRDEALYGAYLAAVSFASAGSGLHHKICHVLGGTFNLPHAQTHATVLPYVLAFNAPYAPQAEQRAAAAFGSATALEGLQQLRAQVGAPQRLSDYGFTAAGIPEAVEIILEKVPANNPRTVTEENLTALLTTALNGDDPATLN”, for which the “soluble on expression in E. coli” value is given as “not soluble”.

As to “MSLREVALKILIVEDDTDAREWLSTIISNHFPEVWSAGDGEEGERLFGLHAPDVIITDIRMPKLGGLEMLDRIKAGGAKPYVIVISAFSEMKYFIKAIELGVHLFLPKPIEPGRLMETLEDFRHIKLAKLKKEEAEQERIRSLLFESKKELIRLIAHHWRQPLNVISITAENIKLNLDERGIEGHEDTHHLADKIVTESLRLSRVISRFSDTFFAKEEVGRHFGLHTVLKDAFEIAEPLAQEARCLLEIEGNDEVIFGLKGMLVQILLEVFKAIMALCDQVNRGELLVRVVCESFEGEVKIWMADVACAGRCWSEVMFEPFAGGFEEKRRDMELFVAQHLLRRYFDGMIKIVDRGEIRGLEITLSRNPKKFNSPLAEGHHHHHH”, the “soluble on expression in E. coli” value is given as “soluble”.

As to “MSLKTLAFDTSNKTLSLAILDDETLLADMTLNIQKKHSVSLMPAIDFLMTCTDLKPQDLERIVVAKGPGSYTGLRVAVATAKTLAYSLNIALVGISSLYALAASTCKQYPNTLVVPLIDARRQNAYVGYYRQGKSVMPQAHASLEVIIEQLVEEGQLIFVGETAPFAEKIQKKLPQAILLPTLPSAYECGLLGQSLAPENVDAFVPQYLKRVEAEENWLKDNEIKDDSHYVKRIEGHHHHHH”, the “soluble on expression in E. coli” value is listed as “soluble”.

As for “MGSDKIHHHHHHLSKLYPHAKNRQDSGMDRNPTLAQWQLAQELRRLRGDRKFSEVVKAARTTGGSLARWETPGDRGAVPGPAALERLLQIYGAEDQLERLLSLRKEARQPDRWQPYGLERSYRTYANIESQATSIEYYQSQIVPGIAQTEAYARAVIEATLHPSSDVDREVQARMERQRVLSKPERPDLWLIIAEGALRQQVGTSQVMADQIDRLIELSQEPGITLQVLPFTAGAHVAMRLAGFVIMSIAQHGITTVYIEGQNSGMFFTDSEDLAEYGMIFNRLRAACLDEGRPTRTLLERIARDHRRGEG”, the “soluble on expression in E. coli” value was “not soluble”.

“MGSSHHHHHHGKTIFVIVPTNEEQVAFLEALAKQDELNFDWQNPPTEPGQPVVILIPSDMVEWFLEMLKAKGIPFTVYVEEGGSENLYFQGGGGGGFVPNWYQHPDPALKYADDMEVYDYYQQYEAAKKAAREASTSSKKTAATSPALPRAKPHVTIA”: the “soluble on expression in E. coli” value is recorded as “soluble”.

Regarding “MKVKEAMNPEIITVSPETRPLEAFEKMYKHGVRRLFVLEDDGKPVGVVSYTDLIGVLGTIKPDSEHPERDLKVRDIMVDEVITISADDNIEDAANLMLRADISGLLVMDDERPVGVITKTDICRLVAAEILVPS”, the “soluble on expression in E. coli” value is “not soluble”.

Turning to “MGSSHHHHHHDYDIPTTENLYFQGHMATNLKSTAKLVKPIQYDEVIEVERIFADPAFIEQHRQRILASFKDAKESALYHELTHIVIKDNLFSCAMNAIVGYFEFNIDEAELKNVMEGLKRDVIQGAEDNTVQAIAEKIIKKALVFNHLQKEWKVEITDEVVKNVISLYYEKTNQSVREYLDDKQKFEGVRTALLEERMVLETINHFKFHFNLTGQLPN”, the “soluble on expression in E. coli” value is “soluble”.

“MGSDKIHHHHHHMPAKVYFTDMTTNPNMNMLQKLELLLKKVELEKIIEKDKFVAVKLHFGEYGNLAFIRPQYVKIIVDQIKKLGGKPFLTDANTLYTGHRSNAVDHLINAYLNGFTYEVTGAPVIIADGLRGSDEIKVKIDGNYVKEAKIGAAIALADAIVAVTHFKGHEATGFGGTIKNVGMGSASRAGKMEQHSESKPYVVEEKCVACGTCAKFCPVGAITVTKVAKIDYEKCIGCGQCIAMCSYGAMSPKWDSSTDSLSKKMAEYAKAVLKDKKAVFISFIMNISPDCDCWNMNKPPVAPDIGIAVSTDPVALDQACIDLVLQKTGKDPFLEVHPDVTWKTQLEYAEEIGLGTREYELVKVACDLK”: the “soluble on expression in E. coli” value is “not soluble”.

Take “MGSDKIHHHHHHMPTIHLIDGEKGGVGKSLVARTMIQYCLDNNMPFVPVETDRSNPDVAGVYKGICQYAVFTEDERHADKADKIFEIAMNKTVIANLAAQSHRAVKGWIEKNHLIELGESQGVDFCKWFVSTGGYDSLNLFKQSVNSYGGKVPHILVKNLGLCDDWEHVNSDATIQEVVKKYNVKAIDFPKLAYKERNIIDQHRLTFADAREYKEFGIISKQRVVNFLKLAYASFETVGIWYEEVK”: the “soluble on expression in E. coli” value is recorded as “not soluble”.

Consider “MREKFYEKYYYAKSDIEGQDGGVVTAFLKYLLENGKIDGAIVVGDECWKPVSLVVQNAEDLLKTAKSKYAISTLDALRKAGEMGLEKVALEHHHHHH”, for which the “soluble on expression in E. coli” value is on record as “not soluble”.

For “MAHHHHHHMFRFCGRRLVARTLPLLADYQELPEAFEFMEHKVADKDIHSAYENMETLRLTVTRQDEFLFKETPVKCVTIVGVNGECGVYPGHAYEITQLTPAPLTVEMPDGTVKKFFTSGGFAHINNEGSCDINCVECIPLTELDVDAAEKALAQQQSALNSAHDDKARAVIEIRIGVLESVIQSLKHA”, the “soluble on expression in E. coli” value is on record as “not soluble”.

For the sequence “MATKPQDANTTSREAITSKADSPPRPTALIFDSGVGGLSVYQEIRQLLPDLHYIYAFDNVAFPYGEKSGEFIVERVLEIVTAVQQRHPLAIVVIACNTASTVSLPALRERFAFPVVGVVPAIKPAVRLTRNGVVGLLATRATVHASYTLDLIARFATDCKIELLGSSELVEVAETKLHGGVVPLEVLKKILHPWLSMREPPDTIVLGCTHFPLLTEELAQVLPEGTRMVDSGAAIARRTAWLISSQENVISSQDENIAYCMALDEDTDALLPVLQSYGFPKLQKLPI”, the “soluble on expression in E. coli” value is “not soluble”.

As to “MSSTPQFLRWYEQNKPVPYRSVLQEKFEPGQTLIVKGSTIDESQRFTINLHSKTADFSGNDVPLHVSVRFDEGKIVLNSFSNGEWGKEERKSNPIKKGDSFDIRIRAHDDRFQIIVDHKEFKDYEHRLPLSSISHLSIDGDLYLNHVHWGGKYYPVPYESGLANGLPVGKSLLVFGTVEKKAKRFHVNLLRKNGDISFHFNPRFDEKHVIRNSLAANEWGNEEREGKNPFEKGVGFDLVIQNEEYAFQVFVNGERYISFAHRADPHDIAGLQISGDIELSGIQIQ”, the “soluble on expression in E. coli” value is on record as “not soluble”.

For the sequence “MSLDEIAVPILSIITLSSYQPDTIALVDDFSSVSYRNAIIHIETVSEQIASCVANSLTKRVMAYFAGSAEMVLAILGAQLSGAAYIPIEPKTPGSRIDAIADVAKPCMIMTDSQNRQGAQSIAERLGIPLVVLSLKKAGKTLDIFREGYREQPFTVERLTSSTPAVVFFTSGSTGTPKGVELSHLGYYRWFEGVQDLIQVKRGDRVALTTNHSFDLSLGELYLGLMSGATLYVPRQSTVRDPLSLVPWLDQHEITVFQSVPSLMRRILLFRESAGQGLETVRTIMFCGEPLEQQLVKKVKDSFPFSHTRILNLYGPVEASVQVTYCWAEEYLGSEDVIIPLGKPLKHVVVRLAEVDDTSHELQITGDHLALRYLDEKKTRESFINDEAEGTRFYRTGDLGRLNARGDLEYHGRVDDQVKINGYRIELGEIEKTIIDHFKATDCCVLIEKSEGEPSLVAFVVSPNDSVADLRRAVADHLPTYMIPRTVIFIESIPLNTNGKRDKPSLRAEYLKEGHHHHHH”, the “soluble on expression in E. coli” value is given as “not soluble”.

Take “MKEIELIATAAAGVESVVKHEVKKLGFKDITVDNGKIMFKGDISSIPRANLWLRSADRVLLKMGEFEALTFEELFDKTYALPWDQWITSDGKFTVLGKSVKSKLFSISDCQAIVKKAVVEKLKSKYHVEWFEESGPEYTIQVALHKDIATLTIDTSGTALHKRGYRAKNVEAPIKETLASAMILISYWNKRKPLWDCFCGSGTIPIEAALIGRNIAPGLNRTFASEEWPAIGKDIWKQERALALRAIDHDIKLKIYGSDINPDAIELAKENACLAGVDDCIEFFVSDFRNVNIKEDYGVIICNPPYGERIGEQQEVETINKDMGKTFSKYDTWSKYIITPFENFERLYGKKADKKRKFYNGNIKVDYYQYFGPKPTNT”: the “soluble on expression in E. coli” value is listed as “soluble”.

For the sequence “FLILGTLFSSSLYADIDNAPLHALAKHQGFFFFFSSSCPHCQRFAPTLKRLSQHYGFSVVAISVDGGFLPSFPDAVMNEGQTKVFQVSVYPSLFLINPKSQVASLVTEGTIDEGELTNRLLKI”, the “soluble on expression in E. coli” value is listed as “not soluble”.

As to “MGSDKIHHHHHHMRLLFSTMFLYEYSTDMIAKAVNLAGYDGVEFWPETPYFWVDRAMEKLECLRDFDNAIHVPVLDLNPVSVNPDICNLTLRETLYSIALAAKIKAKPVTVHAGRRSAAREPVWADYLSLSRYLRISSRYAKIKGVTVGLENSENSINNLCKTADEVRKFAEEYDVMVTLDIKHALLNGGVEEFLELFGRICNVHVSYYDEKMRHVQPSRGKEVGDALKELAELGYDGPLTVELDDLGIGNLDFSKKVEILRKERRFVEKFFKR”, the “soluble on expression in E. coli” value was “not soluble”.
